The text below walks through data of patent publication US20210363269A1 (ALX ONCOLOGY, published 2021).

In one test the target is T1, BL6 mouse SIRP-α (mouse (C57BL/6 strain), UniProt P97797 32-148).
T1 construct: also called C57BL/6
T1 sequence: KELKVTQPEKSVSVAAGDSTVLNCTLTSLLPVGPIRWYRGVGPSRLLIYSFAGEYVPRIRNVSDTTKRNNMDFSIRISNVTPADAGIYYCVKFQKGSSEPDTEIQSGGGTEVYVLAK
The test is described as follows: SPR. In a few lines:
(§1)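 Apparent association and dissociation rate constants, and KD as kd/ka, were obtained by global fitting of double-referenced data to a simple Langmuir model. Measurements used a ProteOn XPR36 biosensor at 25° C in PBS pH 7.4 with 0.01% Tween-20, with SIRP analytes injected in one-shot kinetic mode at nominal concentrations from A280 absorbance. The purified antibodies were either amine-coupled to a GLC chip or held on an NLC chip by biotinylated Protein A.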
In general terms: In SPR one partner is held on a chip, and binding of the other changes the refractive index at the surface.

The target of a further test is T2, NOD mouse SIRP-α (mouse (NOD strain)).
T2 chain: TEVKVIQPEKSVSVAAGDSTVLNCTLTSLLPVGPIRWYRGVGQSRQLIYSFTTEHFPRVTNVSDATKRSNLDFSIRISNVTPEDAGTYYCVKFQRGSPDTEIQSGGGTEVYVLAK
The test is described as follows: SPR. In short, it runs like this:
as §1

For another test, the target named is T3, BALBc mouse SIRP-α (mouse (BALB/c strain)).
T3 chain: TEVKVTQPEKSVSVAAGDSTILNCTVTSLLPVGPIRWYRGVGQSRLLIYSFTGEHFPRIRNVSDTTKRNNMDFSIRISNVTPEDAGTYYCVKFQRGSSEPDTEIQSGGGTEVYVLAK
Put plainly: SPR. In a few lines: as §1

The target in another test is T4, human SIRP-α v1 (human, UniProt P78324 31-149).
T4 construct: also called Human v1; Human V1
Put plainly: SPR. In short, it runs like this:
as §1

The target of test [1] is T5, cynomolgus SIRP-α D1 domain (cyno2) (cynomolgus monkey, UniProt Q5TFQ8 30-148 (human entry), limits assumed).
T5 chain: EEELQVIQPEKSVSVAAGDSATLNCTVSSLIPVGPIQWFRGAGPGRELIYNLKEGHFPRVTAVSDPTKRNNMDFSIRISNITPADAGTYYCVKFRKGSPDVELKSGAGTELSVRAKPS
The test is described as follows: SPR, Langmuir fit. In short, it runs like this:
(§2)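 Pre-filtered culture media supplied the scFv-Fc antibody clones, which were captured by anti-human IgG Fc amine-coupled (about 4000 RU) to a GLC chip on a ProteOn XPR36. SIRP analytes were flowed in PBS pH 7.4 with 0.01% Tween-20 at 25° C. Interspot and buffer-blank responses were subtracted from the data, which were then fitted to a 1:1 Langmuir model. Dissociation rate constants (koff) were derived from this fitting.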

In test [2] the target is T6, human SIRP-α v1 D1 domain (human, UniProt P78324 31-149).
T6 construct: also called human v1
Put plainly: SPR, Langmuir fit. In a few lines: as §2

In test [3] the target is T7, human SIRP-α v2 D1 domain (human).
T7 construct: also called human v2
Put plainly: SPR, Langmuir fit. In short, it runs like this: as §2

For the next test, the target named is T8, human SIRPβ isoform 1 (human, UniProt O00241 30-148).
T8 construct: also called SIRPb; sirpb1
The test is described as follows: SPR, Langmuir fit. In a few lines:
as §2

For test [4], the target named is T9, C57BL/6 mouse SIRP-α D1 domain (mouse (C57BL/6 strain), UniProt P97797 32-148).
T9 sequence: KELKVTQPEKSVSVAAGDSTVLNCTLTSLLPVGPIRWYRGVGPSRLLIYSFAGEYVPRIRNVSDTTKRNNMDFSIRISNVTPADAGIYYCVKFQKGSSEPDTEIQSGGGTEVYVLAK
Put plainly: SPR. In short, it runs like this:
as §2

Test [5] deals with T10, mouse 129 SIRP-α D1 domain (mouse (129 strain), UniProt P97797 32-150).
T10 construct: also called m129
T10 chain: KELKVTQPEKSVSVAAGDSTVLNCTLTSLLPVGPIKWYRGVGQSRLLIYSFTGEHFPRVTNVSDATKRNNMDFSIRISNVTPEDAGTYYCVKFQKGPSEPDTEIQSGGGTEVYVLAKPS
The test is described as follows: SPR. In short, it runs like this: as §2

The next test has as its target T11, human SIRPγ isoform 1 (human, UniProt Q9P1W8 29-147).
T11 construct: also called SIRPg; sirpg
The test is described as follows: SPR. In a few lines:
as §2

T4 sequence (P78324 31-149 limits assumed): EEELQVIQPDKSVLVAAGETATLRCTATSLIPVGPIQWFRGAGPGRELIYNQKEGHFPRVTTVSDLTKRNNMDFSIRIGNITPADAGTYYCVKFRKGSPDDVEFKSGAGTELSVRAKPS
T7 sequence (chain, as listed by the source limits assumed): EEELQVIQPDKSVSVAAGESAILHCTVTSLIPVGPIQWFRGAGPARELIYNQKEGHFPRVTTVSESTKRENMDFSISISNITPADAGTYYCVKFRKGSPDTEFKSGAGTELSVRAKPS
T6 sequence (P78324 31-149 limits assumed): as the sequence (P78324 31-149 limits assumed) above
T8 sequence (O00241 30-148 limits assumed): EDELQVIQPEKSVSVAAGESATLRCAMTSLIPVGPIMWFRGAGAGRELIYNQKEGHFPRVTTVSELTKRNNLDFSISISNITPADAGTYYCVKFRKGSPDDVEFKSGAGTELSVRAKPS
T11 sequence (Q9P1W8 29-147 limits assumed): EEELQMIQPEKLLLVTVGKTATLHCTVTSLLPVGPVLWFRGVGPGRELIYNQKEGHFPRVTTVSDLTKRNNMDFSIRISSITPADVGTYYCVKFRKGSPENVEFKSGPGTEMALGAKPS

B1: Hum1/AB25_HC_Mutall (antibody, V domains shown)
VH: EVQLVESGGGVVQPGGSLRLSCAASGFTFSSNAMSWVRQAPGKGLEWVAGISSGSDTYYGDSVKGRFTISRDNSKNTLYLQMNSLTAEDTAVYYCARETWNHLFDYWGQGTLVTVSS
VL: SYELTQPPSVSVSPGQTARITCSGGSYSSYYYAWYQQKPGQAPVTLIYSDDKRPSNIPERFSGSSSGTTVTLTISGVQAEDEADYYCGGYDQSSYTNPFGGGTKLTVL
For B1, the Kd is 10.3 nM in the test with BL6 mouse SIRP-α, 4.83 nM with NOD mouse SIRP-α, 7.25 nM with BALBc mouse SIRP-α and 0.00519 nM in the test with human SIRP-α v1.

B2: Hum1/AB27_HC_Mutall (antibody, V domains shown)
VH: EVQLVESGGGVVQPGGSLRLSCAASGFRFSSYAMSWVRQAPGKGLEWVSGISSGGDTYYVDSVKGRFTISRDNSKNTLYLQMNSLRAEDTAVYYCARETWNHLFDYWGQGTLVTVSS
VL: SYELTQPPSVSVSPGQTARITCSGGSYSSYYYAWYQQKPGQAPVTLIYSDDKRPSNIPERFSGSSSGTTVTLTISGVQAEDEADYYCGGYDQSSYTNPFGGGTKLTVL
Consider B2, for which the Kd with BL6 mouse SIRP-α was found to be 9.03 nM; with NOD mouse SIRP-α it was 2.92 nM; with BALBc mouse SIRP-α it was 5.77 nM; with human SIRP-α v1, 0.00437 nM.

B3: Hum9/AB25_HC_Mutall (antibody, V domains shown)
VH: EVQLVESGGGVVQPGGSLRLSCAASGFTFSSNAMSWVRQAPGKGLEWVAGISSGSDTYYGDSVKGRFTISRDNSKNTLYLQMNSLTAEDTAVYYCARETWNHLFDYWGQGTLVTVSS
VL: SYELTQPPSVSVSPGQTARITCSGGAYSSYYYAWYQQKPGQAPVLVIYSDDKRPSGIPERFSGSSSGTTVTLTISGVQAEDEADYYCGGYDQSSYTNPFGGGTKLTVL
With B3, the dissociation constant (Kd) turned out to be 11.5 nM with BL6 mouse SIRP-α, 61.2 nM in the test with NOD mouse SIRP-α, 38.3 nM with BALBc mouse SIRP-α and 0.0129 nM with human SIRP-α v1.

B4: Hum8/AB25_HC_Mutall (antibody, V domains shown)
VH: EVQLVESGGGVVQPGGSLRLSCAASGFTFSSNAMSWVRQAPGKGLEWVAGISSGSDTYYGDSVKGRFTISRDNSKNTLYLQMNSLTAEDTAVYYCARETWNHLFDYWGQGTLVTVSS
VL: SYELTQPPSVSVSPGQTARITCSGGAYSSYYYAWYQQKPGQAPVLVIYSDSKRPSGIPERFSGSSSGTTVTLTISGVQAEDEADYYCGGYDQSSYTNPFGGGTKLTVL
As to B4, the Kd was found to be 497000 nM with BL6 mouse SIRP-α, 20.5 nM with NOD mouse SIRP-α, 59.9 nM in the test with BALBc mouse SIRP-α and 0.0262 nM with human SIRP-α v1.

B5: S149 (scFv, V domains shown)
VH: DVQLVESGGGVVRPGESLRLSCAASGFTFSNFAMNWVRQAPGEGLEWVSLISVTATTYYADSVKGRFTISRDNSKNTLYLQMNSLRAEDTAVYYCAKVTWNNLFDYWGLGTLVTVSS
VL: EIVLTQSPGTLSLSPGERATLSCRASQPIDSYLAWYQQKPGQAPRLLIYNTVTRATGIPDRFSGSGSGTDFTLTINRLEPEDFAVYYCQHQYDWPPYIFGGGTKVEIK
notes: scFv-Fc format (VL-linker-VH on human IgG1 Fc)
In the case of B5, the off-rate constant (koff) worked out at 0.00258 s⁻¹ in test [1], 0.00415 s⁻¹ in test [2], 0.000544 s⁻¹ in test [3] and 0.000331 s⁻¹ with human SIRPβ isoform 1. Also, the binding result (in [4]; in test [5]; with human SIRPγ isoform 1) was “no binding (tested: Koff > 5 × 10^3 (legend))” each time.

A word on the Kd: it is a measure of binding affinity in units of concentration. For orientation: koff means the rate constant with which the complex falls apart.
